First the molecules themselves.
B1: MTSP-1 H40R/I41H/Y60gH/F97D/F99L/C122S/Q175M/Q192G/D217I/K224R (enzyme)
chain: VVGGTDADEGEWPWQVSLHALGQGRHCGASLISPNWLVSAAHCYIDDRGFRHSDPTQWTAFLGLHDQSQRSAPGVQERRLKRIISHPFFNDDTLDYDIALLELEKPAEYSSMVRPISLPDASHVFPAGKAIWVTGWGHTQYGGTGALILQKGEIRVINQTTCENLLPQMITPRMMCVGFLSGGVDSCGGDSGGPLSSVEADGRIFQAGVVSWGIGCAQRNRPGVYTRLPLFRDWIKENTGV
B2: MTSP-1 H40R/I41H/F97D/F99L/C122S/G151D/Q175M/Q192G/D217V (enzyme)
chain: B1 chain with H52Y, G145D, I214V, R221K
B3: ins97aA/F97G/T98L/C122S/Q175M/Q192A/D217I/K224R (enzyme)
chain: VVGGTDADEGEWPWQVSLHALGQGHICGASLISPNWLVSAAHCYIDDRGFRYSDPTQWTAFLGLHDQSQRSAPGVQERRLKRIISHPFFNDGALFDYDIALLELEKPAEYSSMVRPISLPDASHVFPAGKAIWVTGWGHTQYGGTGALILQKGEIRVINQTTCENLLPQMITPRMMCVGFLSGGVDSCAGDSGGPLSSVEADGRIFQAGVVSWGIGCAQRNRPGVYTRLPLFRDWIKENTGV
B4: ins97aY/F97G/T98V/C122S/Q175M/Q192S/D217V (enzyme)
chain: B3 chain with A93Y, L94V, A189S, I215V, R222K
B5: Q38H/I41S/D60bY/D96Y/ins97aV/F97D/T98P/F99L/L106M/C122S/I136M/Q192G/Q209L/D217T (enzyme)
chain: VVGGTDADEGEWPWQVSLHALGHGHSCGASLISPNWLVSAAHCYIDYRGFRYSDPTQWTAFLGLHDQSQRSAPGVQERRLKRIISHPFFNYDVPLDYDIALMELEKPAEYSSMVRPISLPDASHVFPAGKAMWVTGWGHTQYGGTGALILQKGEIRVINQTTCENLLPQQITPRMMCVGFLSGGVDSCGGDSGGPLSSVEADGRIFLAGVVSWGTGCAQRNKPGVYTRLPLFRDWIKENTGV
B6: Q38Y/I41A/D60bL/F60eQ/ins97aV/F97D/T98P/F99L/C122S/G151N/Q175M/Q192A (enzyme)
chain: VVGGTDADEGEWPWQVSLHALGYGHACGASLISPNWLVSAAHCYIDLRGQRYSDPTQWTAFLGLHDQSQRSAPGVQERRLKRIISHPFFNDDVPLDYDIALLELEKPAEYSSMVRPISLPDASHVFPAGKAIWVTGWGHTQYGGTNALILQKGEIRVINQTTCENLLPQMITPRMMCVGFLSGGVDSCAGDSGGPLSSVEADGRIFQAGVVSWGDGCAQRNKPGVYTRLPLFRDWIKENTGV
B7: Q38H/I41S/D60bS/ins97aV/F97D/T98P/F99L/M117L/C122S/I136T/Q192G/D217I (enzyme)
chain: B5 chain with Y47S, Y91D, M102L, M113L, M132T, L207Q, T215I
B8: Q38G/H40R/I41H/D60bN/F97D/F99L/C122S/Q175L/Q192G (enzyme)
chain: B1 chain with Q23G, D47N, H52Y, M169L, I214D, R221K
B9: H40R/I41H/F97D/F99L/C122S/Q175M/Q192G/D217V/K224Y (enzyme)
chain: B1 chain with H52Y, I214V, R221Y
B10: I41G/F97I/F99L/C122S/G151L/Q175M/Q192S/D217V (enzyme)
chain: B1 chain with R25H, H26G, H52Y, D92I, G145L, G188S, I214V, R221K
B11: Q38Y/I41S/D60bT/F60eR/Y60gW/D96M/F97N/T98G/F99L/C122S/G151N/Q175L (enzyme)
chain: VVGGTDADEGEWPWQVSLHALGYGHSCGASLISPNWLVSAAHCYIDTRGRRWSDPTQWTAFLGLHDQSQRSAPGVQERRLKRIISHPFFNMNGLDYDIALLELEKPAEYSSMVRPISLPDASHVFPAGKAIWVTGWGHTQYGGTNALILQKGEIRVINQTTCENLLPQLITPRMMCVGFLSGGVDSCQGDSGGPLSSVEADGRIFQAGVVSWGDGCAQRNKPGVYTRLPLFRDWIKENTGV
B12: Q38H/I41A/D60bV/F60eR/Y60gW/D96I/F97N/T98G/F99L/C122S/G151H/Q175L/Q192D (enzyme)
chain: B11 chain with Y23H, S26A, T47V, M91I, N145H, Q188D
B13: Q38H/I41A/D60bV/F60eR/Y60gW/D96P/ins97aN/F97W/T98G/F99L/C122S/G151H/Q175L/Q192E (enzyme)
chain: VVGGTDADEGEWPWQVSLHALGHGHACGASLISPNWLVSAAHCYIDVRGRRWSDPTQWTAFLGLHDQSQRSAPGVQERRLKRIISHPFFNPWNGLDYDIALLELEKPAEYSSMVRPISLPDASHVFPAGKAIWVTGWGHTQYGGTHALILQKGEIRVINQTTCENLLPQLITPRMMCVGFLSGGVDSCEGDSGGPLSSVEADGRIFQAGVVSWGDGCAQRNKPGVYTRLPLFRDWIKENTGV
B14: Q38H/I41A/D60bV/F60eR/Y60gW/D96I/ins97aN/F97Y/T98G/F99L/C122S/G151N/Q175L/Q192D (enzyme)
chain: B13 chain with P91I, W92Y, H146N, E189D
B15: Q38H/I41A/D60bV/F60eR/Y60gW/D96P/ins97aN/F97W/T98G/F99L/C122S/G151N/Q175L/Q192D (enzyme)
chain: B13 chain with H146N, E189D
B16: Q38H/I41A/D60bV/F60eT/Y60gW/ins97aE/F97T/T98G/F99L/C122S/Q175L/Q192E (enzyme)
chain: B13 chain with R50T, P91D, W92T, N93E, H146G
B17: Q38H/I41S/D60bT/F60eS/Y60gW/D96K/F97G/ins97aV/T98P/F99L/C122S/G151H/Q175L (enzyme)
chain: B13 chain with A26S, V47T, R50S, P91K, W92G, N93V, G94P, E189Q
B18: Q38H/I41A/D60bV/F60eR/Y60gW/D96P/ins97aN/F97W/T98G/F99L/C122S/G151N/Q175L/Q192E (enzyme)
chain: B13 chain with H146N
B19: Q38H/I41S/D60bT/F60eS/Y60gW/D96L/ins97aG/F97D/T98N/F99L/C122S/G151H/Q175L/Q192E (enzyme)
chain: B13 chain with A26S, V47T, R50S, P91L, W92D, N93G, G94N
B20: Q38H/I41A/D60bV/F60eR/Y60gW/D96S/ins97aR/F97A/T98S/F99L/C122S/G151N/Q175L/Q192T (enzyme)
chain: B13 chain with P91S, W92A, N93R, G94S, H146N, E189T
B21: Q38H/I41A/D60bV/F60eR/Y60gW/D96I/ins97aN/F97Y/T98G/F99L/C122S/G151H/Q175L/Q192D (enzyme)
chain: B13 chain with P91I, W92Y, E189D
B22: Q38H/I41S/D60bT/F60eS/Y60gW/ins97aV/F97D/T98P/F99L/C122S/G151H/Q175L (enzyme)
chain: B13 chain with A26S, V47T, R50S, P91D, W92D, N93V, G94P, E189Q
B23: Q38H/I41S/D60bT/F60eS/Y60gW/D96K/F97G/ins97aA/T98P/F99L/C122S/G151H/Q175L/Q192D (enzyme)
chain: B13 chain with A26S, V47T, R50S, P91K, W92G, N93A, G94P, E189D
B24: Q38F/I41S/D60bF/F60eR/Y60gF/F97T/ins97aE/T98G/F99L/C122S/G151N/Q175L/Q192V (enzyme)
chain: B13 chain with H23F, A26S, V47F, W52F, P91D, W92T, N93E, H146N, E189V
B25: Q38F/I41A/D60bT/F60eG/Y60gW/ins97aE/F97T/T98G/F99L/C122S/Q175L/Q192E (enzyme)
chain: B13 chain with H23F, V47T, R50G, P91D, W92T, N93E, H146G
B26: Q38H/I41A/D60bV/F60eA/Y60gW/F97T/ins97aE/T98G/F99L/C122S/Q175L/Q192V (enzyme)
chain: B13 chain with R50A, P91D, W92T, N93E, H146G, E189V
B27: Q38H/I41A/D60bV/F60eR/Y60gW/D96P/ins97aN/F97W/T98G/F99L/C122S/G151H/Q175L/Q192D (enzyme)
chain: B13 chain with E189D
B28: Q38H/I41A/D60bT/F60eK/Y60gW/F97T/ins97aE/T98G/F99L/C122S/Q175L/Q192A (enzyme)
chain: B13 chain with V47T, R50K, P91D, W92T, N93E, H146G, E189A
B29: Q38H/I41S/D60bT/F60eS/Y60gW/D96F/F97D/ins97aE/T98S/F99L/C122S/G151H/Q175L/Q192A (enzyme)
chain: B13 chain with A26S, V47T, R50S, P91F, W92D, N93E, G94S, E189A
B30: Q38H/I41A/D60bT/F60eH/Y60gW/ins97aE/F97T/T98G/F99L/C122S/Q175L/Q192D (enzyme)
chain: B13 chain with V47T, R50H, P91D, W92T, N93E, H146G, E189D
B31: Q38H/I41S/D60bF/F60eV/F97D/ins97aV/T98P/F99L/C122S/G151N/Q175L/Q192A (enzyme)
chain: B6 chain with Y23H, A26S, L47F, Q50V, M170L
B32: Q38H/I41A/D60bV/F60eR/Y60gW/ins97aE/F97T/T98G/F99L/C122S/Q175L/Q192D (enzyme)
chain: B13 chain with P91D, W92T, N93E, H146G, E189D

Residue numbers refer to the chain shown, from its start. Numbers in names are those of the source.

These results are taken from patent US20240018502A1.

The target of one experiment is plasma purified human complement protein C3 (human) (UniProt P01024). In words: cell-based or functional assay.
plasma purified human complement protein C3 (human), sequence (P01024 23-667, chain 1 of 2): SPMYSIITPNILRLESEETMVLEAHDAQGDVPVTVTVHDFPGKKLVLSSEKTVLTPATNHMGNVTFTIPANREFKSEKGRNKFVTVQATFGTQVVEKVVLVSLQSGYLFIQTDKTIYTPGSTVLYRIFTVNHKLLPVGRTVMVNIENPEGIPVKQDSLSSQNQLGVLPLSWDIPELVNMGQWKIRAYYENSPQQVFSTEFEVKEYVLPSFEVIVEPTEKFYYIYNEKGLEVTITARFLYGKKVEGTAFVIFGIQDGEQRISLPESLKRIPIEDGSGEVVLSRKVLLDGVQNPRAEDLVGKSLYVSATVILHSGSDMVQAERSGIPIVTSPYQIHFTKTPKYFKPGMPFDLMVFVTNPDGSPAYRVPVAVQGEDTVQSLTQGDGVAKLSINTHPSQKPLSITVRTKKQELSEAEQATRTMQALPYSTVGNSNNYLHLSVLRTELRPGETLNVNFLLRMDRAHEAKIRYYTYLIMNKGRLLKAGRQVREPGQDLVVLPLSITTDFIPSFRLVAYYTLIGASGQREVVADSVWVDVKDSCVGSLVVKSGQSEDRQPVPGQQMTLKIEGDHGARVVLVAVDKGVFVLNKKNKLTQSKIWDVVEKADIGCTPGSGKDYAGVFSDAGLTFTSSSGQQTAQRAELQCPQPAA
plasma purified human complement protein C3 (human), sequence (P01024 672-1663, chain 2 of 2): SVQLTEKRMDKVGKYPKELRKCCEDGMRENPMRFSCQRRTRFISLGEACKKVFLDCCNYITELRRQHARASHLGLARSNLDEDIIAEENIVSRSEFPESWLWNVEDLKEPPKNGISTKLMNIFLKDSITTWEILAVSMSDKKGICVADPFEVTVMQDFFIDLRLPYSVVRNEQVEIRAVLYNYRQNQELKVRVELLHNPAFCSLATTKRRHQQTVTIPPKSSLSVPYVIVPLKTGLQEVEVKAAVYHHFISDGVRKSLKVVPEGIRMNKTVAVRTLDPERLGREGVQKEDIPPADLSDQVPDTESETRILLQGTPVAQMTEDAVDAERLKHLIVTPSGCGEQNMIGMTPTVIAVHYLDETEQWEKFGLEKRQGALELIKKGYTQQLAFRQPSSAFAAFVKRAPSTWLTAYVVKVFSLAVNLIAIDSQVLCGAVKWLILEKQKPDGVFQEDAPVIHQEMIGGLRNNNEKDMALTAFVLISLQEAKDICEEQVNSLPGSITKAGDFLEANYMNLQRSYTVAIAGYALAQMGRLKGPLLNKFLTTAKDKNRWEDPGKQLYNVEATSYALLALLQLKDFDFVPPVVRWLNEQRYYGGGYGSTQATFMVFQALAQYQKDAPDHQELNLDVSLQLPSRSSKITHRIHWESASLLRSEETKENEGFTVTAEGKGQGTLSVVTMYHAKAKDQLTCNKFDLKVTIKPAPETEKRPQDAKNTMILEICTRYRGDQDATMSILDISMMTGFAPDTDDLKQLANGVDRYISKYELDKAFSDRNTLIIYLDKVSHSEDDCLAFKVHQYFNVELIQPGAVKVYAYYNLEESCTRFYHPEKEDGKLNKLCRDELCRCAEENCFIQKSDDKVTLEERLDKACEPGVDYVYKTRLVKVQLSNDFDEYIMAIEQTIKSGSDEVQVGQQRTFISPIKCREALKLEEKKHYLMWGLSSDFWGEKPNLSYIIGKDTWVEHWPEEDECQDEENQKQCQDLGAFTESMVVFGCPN
B1 came in with an EC50 of hC3 cleavage of 7.94 nM.

Regarding B2, the EC50 of hC3 cleavage turned out to be 70.8 nM.

In the next experiment the target is human complement protein C3 (human) (UniProt P01024). In words: cell-based or functional assay.
human complement protein C3 (human), sequence (P01024 23-667, chain 1 of 2): as the sequence (P01024 23-667, chain 1 of 2) above
human complement protein C3 (human), sequence (P01024 672-1663, chain 2 of 2): as the sequence (P01024 672-1663, chain 2 of 2) above
For the molecule B3, the EC50 (nM), cleavage of purified hC3 in vitro is 0.866 nM.

In the case of B4, the EC50 (nM), cleavage of purified hC3 in vitro is 2.42 nM.

B5: the EC50 (nM), cleavage of purified hC3 in vitro was 1.97 nM.

B6 had an EC50 (nM), cleavage of purified hC3 in vitro of 1.53 nM.

B7: the EC50 (nM), cleavage of purified hC3 in vitro came out at 2.43 nM.

In the case of B8, the EC50 (nM), cleavage of purified hC3 in vitro worked out at 0.867 nM.

Regarding B9, the EC50 (nM), cleavage of purified hC3 in vitro amounted to 2.76 nM.

On to B10, for which the EC50 (nM), cleavage of purified hC3 in vitro amounted to 2.84 nM.

The molecule B11 had an EC50 (nM), cleavage of purified hC3 in vitro of 1.08 nM.

B12 registered an EC50 (nM), cleavage of purified hC3 in vitro of 2.52 nM.

Molecule B13 came in with an EC50 (nM), cleavage of purified hC3 in vitro of 1.11 nM.

In the case of B14, the EC50 (nM), cleavage of purified hC3 in vitro is 2.23 nM.

Molecule B15 displayed an EC50 (nM), cleavage of purified hC3 in vitro of 2.54 nM.

Consider B16, for which the EC50 (nM), cleavage of purified hC3 in vitro turned out to be 1.39 nM.

B17 yielded an EC50 (nM), cleavage of purified hC3 in vitro of 1.45 nM.

In turn, B18 gave an EC50 (nM), cleavage of purified hC3 in vitro of 1.51 nM.

Regarding B19, the EC50 (nM), cleavage of purified hC3 in vitro is 1.59 nM.

B20 yielded an EC50 (nM), cleavage of purified hC3 in vitro of 2.07 nM.

As to B21, the EC50 (nM), cleavage of purified hC3 in vitro is 1.57 nM.

In turn, B22 showed an EC50 (nM), cleavage of purified hC3 in vitro of 1.31 nM.

B23 gave an EC50 (nM), cleavage of purified hC3 in vitro of 1.43 nM.

The molecule B24 yielded an EC50 (nM), cleavage of purified hC3 in vitro of 1.96 nM.

Molecule B25 displayed an EC50 (nM), cleavage of purified hC3 in vitro of 1.25 nM.

The molecule B26 had an EC50 (nM), cleavage of purified hC3 in vitro of 1.57 nM.

For the molecule B27, the EC50 (nM), cleavage of purified hC3 in vitro stood at 1.83 nM.

Molecule B28 returned an EC50 (nM), cleavage of purified hC3 in vitro of 2.71 nM.

In the case of B29, the EC50 (nM), cleavage of purified hC3 in vitro was determined as 1.17 nM.

B30 came in with an EC50 (nM), cleavage of purified hC3 in vitro of 2.28 nM.

In the case of B31, the EC50 (nM), cleavage of purified hC3 in vitro was found to be 1.57 nM.

Molecule B32 displayed an EC50 (nM), cleavage of purified hC3 in vitro of 2.37 nM.
